The target of assay [1] is HIV-1 Env (LAV) (HIV-1 (LAV)) (UniProt P03377). The assay is described as follows: cell-based or functional assay.
Assay [2] addresses wildtype (WT) SF162 Env (HIV-1 (SF162)) (UniProt P19550). The experiment in a line: cell-based or functional assay.

Turning to MAb 17b (antibody), in assay [1], the % control, Standard Assay (CXCR4 and CD4 on target cells), 17b at 0.1 µg/ml came out at 93.4 % control; the % control, Standard Assay (CXCR4 and CD4 on target cells), 17b at 0.5 µg/ml came out at 104 % control; the % control, Standard Assay (CXCR4 and CD4 on target cells), 17b at 1 µg/ml stood at 94.1 % control; the % control, Standard Assay (CXCR4 and CD4 on target cells), 17b at 5 µg/ml came out at 119 % control. In assay [1], this substance showed a % control, sCD4 Assay (CXCR4 alone on target cells, 200 nM soluble CD4 added), 17b at 0.1 µg/ml of 114 % control; a % control, sCD4 Assay (CXCR4 alone on target cells, 200 nM soluble CD4 added), 17b at 0.5 µg/ml of 39.2 % control; a % control, sCD4 Assay (CXCR4 alone on target cells, 200 nM soluble CD4 added), 17b at 1 µg/ml of 14.1 % control; a % control, sCD4 Assay (CXCR4 alone on target cells, 200 nM soluble CD4 added), 17b at 5 µg/ml of 0 % control. Besides, in assay [1], the β-gal, Standard Assay (CXCR4 and CD4 on target cells), 17b at 0.1 µg/ml was 39.5; the β-gal, Standard Assay (CXCR4 and CD4 on target cells), 17b at 0.5 µg/ml was 43.9; the β-gal, Standard Assay (CXCR4 and CD4 on target cells), 17b at 1 µg/ml was 39.8; the β-gal, Standard Assay (CXCR4 and CD4 on target cells), 17b at 5 µg/ml stood at 50.5. In assay [1], this substance came in with a β-gal, sCD4 Assay (CXCR4 alone on target cells, 200 nM soluble CD4 added), 17b at 0.1 µg/ml of 13.6; a β-gal, sCD4 Assay (CXCR4 alone on target cells, 200 nM soluble CD4 added), 17b at 0.5 µg/ml of 4.66; a β-gal, sCD4 Assay (CXCR4 alone on target cells, 200 nM soluble CD4 added), 17b at 1 µg/ml of 1.68; a β-gal, sCD4 Assay (CXCR4 alone on target cells, 200 nM soluble CD4 added), 17b at 5 µg/ml of 0.

In assay [2], “soluble CD4 (from UniProt P01730 26-208) (receptor)” came in with a β-gal activity, vaccinia-based reporter gene cell fusion assay, +sCD4 (100 nM), CCR5 target cells without CD4; WT Env duplicate of 6.6 and a β-gal activity, vaccinia-based reporter gene cell fusion assay, +sCD4 (100 nM), CCR5 target cells without CD4; WT Env mean of 5.9.

Source of the values: patent US7115262.
